Measurements as given in publication PMC4050729.
pEC50: −log10 of the molar value.

Experiments:
[1] = target: ribosome nascent chain complex bearing the 3A7L signal sequence, nascent chain of 85 residues, Cm-labeled (UniProt P0ADZ0); assay: FRET or BRET
[2] = target: ribosome nascent chain complex bearing the 3A7L signal sequence, nascent chain of 85 residues, Cm-labeled (UniProt P0ADZ0); assay: other fluorescence titration

| Substance | fold weaker binding than wt SRP in the closed complex [1] [fold] | fold weaker binding than wt SRP in the early complex [1] [fold] | pEC50 [2] |
| --- | --- | --- | --- |
| SRP-FtsY complex formed with mutant SRP19/21E (early complex with GDP, closed complex with GppNHp) (from UniProt P0AGD7;P10121) | 6 | > 300 |  |
| SecYEG translocon, cysteineless, solubilized in 0.02% DDM (from UniProt P0AGA2;P0AG96;P0AG99) (complex) |  |  | 7.41 |
